From patent US8409825B2, “Method for high-level secretory production of protein” (National Institute of Advanced Industrial Science and …, priority 2007, dated 2013)
“And” between values parts separate entries of the source, which are not always exact repeats. Identical values can stand only once.

How the values were obtained:
Type in all cases: biochemical
M. lysodeikticus = assay: Bacteriolytic activity of secreted human lysozyme; settings: Table 3; for Bacteriolytic activity: culture supernatant, clones 1 to 3, 10 minutes at room temperature, absorbance at 450 nm; for Specific activity: per total amount of protein in culture supernatant, clones 1 to 3
Source text: The expression vector for the aMF secretory signal-fused hLyz gene, onaP21808, was introduced into the ona01206 strain into which no chaperone combination was introduced, a strain that constitutively expresses a combination of O. minuta-derived chaperone genes; i.e., OmPDI1, OmERO1, and OmKar2, (i.e., the ona44607 strain), and a strain that constitutively expresses a combination of human-derived chaperone genes; i.e., synthetic hPDI, synthetic hERO1-Lβ, and synthetic hGRP78, (i.e., the ona68908 strain). Three clones were arbitrarily selected from the resulting colonies and cultured.
Also, bacteriolytic activity was assayed in the following manner. Bacteria of M. lysodeikticus was used as a substrate, and it was suspended in 50 mM phosphate buffer to prepare a substrate solution with a concentration of 0.16 mg/ml. To 240 μl of this substrate solution, 10 μl of a culture supernatant (the secreted human lysozyme) was added, and the mixture was incubated at room temperature for 10 minutes. Thereafter, the absorbance at 450 nm was assayed. […] Thus, a unit of lysozyme activity was defined as the amount of an enzyme that is necessary for the absorbance at 450 nm to be lowered by 0.001 per minute. Also, the total amount of proteins in the culture supernatant was assayed using the DC protein assay kit II (Bio-Rad, 500-0112JA) using bovine serum albumin as the standard.

[1] = target: T1, human alpha-2,3-sialic acid transferase (ST3GalI) (Homo sapiens, UniProt Q11201); assay: Sialic acid transferase (ST3GalI) enzyme activity assay of crude enzyme solution, HPLC, core 1-pNP substrate; settings: for Specific activity: Table 1, culture supernatant equivalent to 10 μU, EndoHf treated, Western blot signal intensity; for Activity: Table 2, culture supernatant, assayed with the elapse of time
T1 construct: The catalyst domain of the ST3GalI gene was first amplified via PCR; His6 (N); made in house; host or cells: Ogataea minuta TK10-1-2 derived strains (YT-2 to YT-7), with or without co-expressed O. minuta chaperones; culture supernatant used as crude enzyme
T1 sequence (Q11201 35-340 limits assumed): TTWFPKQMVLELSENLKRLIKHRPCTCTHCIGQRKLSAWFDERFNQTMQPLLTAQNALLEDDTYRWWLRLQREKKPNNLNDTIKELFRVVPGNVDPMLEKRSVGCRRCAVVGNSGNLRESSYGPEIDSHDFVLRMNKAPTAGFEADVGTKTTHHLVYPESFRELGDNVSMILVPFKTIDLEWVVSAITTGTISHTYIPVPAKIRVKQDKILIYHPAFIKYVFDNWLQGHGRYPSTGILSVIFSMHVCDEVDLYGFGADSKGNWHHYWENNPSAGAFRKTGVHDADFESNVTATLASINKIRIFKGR
Description: The YT-2 strain and the YT-3 strain were inoculated in 5 ml of YPAD+KCl medium (2% polypeptone, 1% yeast extract, 2% glucose, adenine (40 mg/l), 0.3 M potassium chloride), and preculture was carried out at 30° C. overnight. Subsequently, 1 ml of a preculture solution was inoculated in 150 ml of YPAD+KCl medium, and culture was carried out at 30° C. for 48 hours. The strains were recovered, resuspended in 100 ml of BMMY+2% casamino acid medium (1% yeast extract, 2% polypeptone, 1.34% Yeast Nitrogen Base without amino acids (Difco), 0.1 M KPi (pH 6.0), 2% casamino acid, 1% methanol), and cultured at 20° C. for 96 hours. Methanol was added to a concentration of 0.5% every 12 hours. After the completion of culture, the culture product was subjected to centrifugation to remove yeast cells, and the resulting solution was designated as a crude enzyme solution.
Enzyme activity was assayed in the following manner. A crude enzyme solution (2 μl) was added to 18 μl of a reaction solution (0.1 M Tris-HCl (pH 7.5), 1 mM MnCl2, 5 mM CMP-NeuAc, 50 μM core 1-pNP), and the reaction was initiated. After the reaction was carried out at 37° C. for 30 minutes, the reaction was terminated via boiling, and HPLC analysis was carried out. A Cosmosil 5C18-ARII column (4.6×250 mm, Nacalai Tesque, Inc.) was used, and a mixture of 0.2 M triethylamine-acetic acid (pH 7.0, solution A) and acetonitrile (solution B) (solution A:solution B=9:1) was used as a mobile phase. The column was equilibrated, the sample was injected therein, and elution was carried out 20 minutes thereafter. Detection was carried out using a UV detector (detection wavelength: 300 nm). A core1-pNP substrate was eluted 14.5 minutes later, and a reaction product, sialylcore1-pNP, was eluted 17 minutes later. The reaction product was quantified based on the peak area, and the result was designated as activity (U). The unit “1 U” was defined as the amount of an enzyme that is necessary to produce 1 μmol of the reaction product per minute.
Western blot analysis was then carried out. The culture supernatants in amounts equivalent to “10 μU” of the YT-2 strain and the YT-3 strain were subjected to treatment with EndoHf (NEB, P0703S) in accordance with the protocol, applied, and then subjected to SDS-PAGE. After electrophoresis, the product was transferred to a PVDF membrane, and Western blotting was carried out in accordance with a conventional technique. A mouse anti-FLAG M2 antibody (Sigma, F1804) was used as a primary antibody and an anti-mouse IgG antibody-alkaline phosphatase composite was used as a secondary antibody. Detection was carried out using CDP-Star and an image analyzer, LAS1000 (Fujifilm Corporation). Further, signals were quantified using Image Gauge (Fujifilm Corporation).
The expression vector for various chaperone gene combinations derived from O. minuta prepared in Example 4 was introduced into the YT-1 strain of Example 17. In the same manner as in Example 16, plasmids were cleaved with NotI to transform the YT-1 strain. After transformation, the resultant was applied on SD-Ura medium (2% glucose, 0.17% Yeast Nitrogen Base without amino acids (Difco), nucleic acid bases except for uracil, and amino acid mixture (20 to 400 mg/l)) and culture was carried out at 30° C. for 2 days. Whether or not the expression vector was incorporated into a chromosome was confirmed via colony PCR described in Example 5, an expressed strain having a coexpression vector (onaP09407) carrying two copies of the OmPDI1 expression cassette was designated as the YT-4 strain, an expressed strain having a coexpression vector (onaP09707) for OmPDI1 and OmKar2 was designated as the YT-5 strain, an expressed strain having a coexpression vector (onaP09507) for OmPDI1 and OmERO1 was designated as the YT-6 strain, and an expressed strain having a coexpression vector (onaP09607) for OmPDI1 and OmHSP104 was designated as the YT-7 strain. […]

[2] = target: T1, human alpha-2,3-sialic acid transferase (ST3GalI); assay: as above; settings: Table 2, 30 μl culture supernatant, Western blot signal intensity, with the elapse of time

Ona68908: secreted human lysozyme sample from strain expressing synthetic hPDI, synthetic hERO1-Lβ, and synthetic hGRP78
Bacteriolytic activity (M. lysodeikticus): 36.0 unit/ml and 29.3 unit/ml and 33.3 unit/ml
Specific activity (M. lysodeikticus): 0.68 unit/mg and 0.61 unit/mg and 0.65 unit/mg

Ona01206: secreted human lysozyme sample from strain into which no chaperone combination was introduced
Bacteriolytic activity (M. lysodeikticus): 23.0 unit/ml and 22.3 unit/ml and 22.0 unit/ml
Specific activity (M. lysodeikticus): 0.45 unit/mg and 0.42 unit/mg and 0.43 unit/mg

Ona44607: secreted human lysozyme sample from strain constitutively expressing OmPDI1, OmERO1, and OmKar2
Bacteriolytic activity (M. lysodeikticus): 33.3 unit/ml and 34.0 unit/ml
Specific activity (M. lysodeikticus): 0.67 unit/mg and 0.65 unit/mg

B1: YT-3: ST3GalI crude enzyme solution from O. minuta strain into which OmPDI1 (onaP03606) had been introduced (protein, UniProt Q11201 1-340, looked up)
CMP-N-acetylneuraminate-beta-g …: MVTLRKRTLKVLTFLVLFIFLTSFFLNYSHTMVATTWFPKQMVLELSENLKRLIKHRPCTCTHCIGQRKLSAWFDERFNQTMQPLLTAQNALLEDDTYRWWLRLQREKKPNNLNDTIKELFRVVPGNVDPMLEKRSVGCRRCAVVGNSGNLRESSYGPEIDSHDFVLRMNKAPTAGFEADVGTKTTHHLVYPESFRELGDNVSMILVPFKTIDLEWVVSAITTGTISHTYIPVPAKIRVKQDKILIYHPAFIKYVFDNWLQGHGRYPSTGILSVIFSMHVCDEVDLYGFGADSKGNWHHYWENNPSAGAFRKTGVHDADFESNVTATLASINKIRIFKGR
difference in the expression levels (enzyme activity) compared with YT-2 ([1]; 96 hours later, FIG. 15): approximately 3.4 times
Specific activity [1]: 3.36 pU/AU
elevation of the specific activity by introduction of OmPDI1 ([1]; YT-3 versus YT-2): approximately 1.6 times

B2: YT-7: ST3GalI culture supernatant from strain coexpressing OmPDI1 and OmHSP104 (protein, UniProt Q11201 1-340, looked up)
CMP-N-acetylneuraminate-beta-g …: MVTLRKRTLKVLTFLVLFIFLTSFFLNYSHTMVATTWFPKQMVLELSENLKRLIKHRPCTCTHCIGQRKLSAWFDERFNQTMQPLLTAQNALLEDDTYRWWLRLQREKKPNNLNDTIKELFRVVPGNVDPMLEKRSVGCRRCAVVGNSGNLRESSYGPEIDSHDFVLRMNKAPTAGFEADVGTKTTHHLVYPESFRELGDNVSMILVPFKTIDLEWVVSAITTGTISHTYIPVPAKIRVKQDKILIYHPAFIKYVFDNWLQGHGRYPSTGILSVIFSMHVCDEVDLYGFGADSKGNWHHYWENNPSAGAFRKTGVHDADFESNVTATLASINKIRIFKGR
Specific activity ([2]; listed as YT-7-1): 11.4 pU/AU
Specific activity ([2]; listed as YT-7-2): 27.9 pU/AU
Specific activity ([2]; listed as YT-7-3): 42.5 pU/AU
Specific activity ([2]; listed as YT-7-4): 57.3 pU/AU
Activity ([1]; listed as YT-7-1): 1.28 mU/ml
Activity ([1]; listed as YT-7-2): 2.98 mU/ml
Activity ([1]; listed as YT-7-3): 3.45 mU/ml
Activity ([1]; listed as YT-7-4): 3.65 mU/ml

B3: YT-5: ST3GalI culture supernatant from strain coexpressing OmPDI1 and OmKar2 (protein, UniProt Q11201 1-340, looked up)
CMP-N-acetylneuraminate-beta-g …: MVTLRKRTLKVLTFLVLFIFLTSFFLNYSHTMVATTWFPKQMVLELSENLKRLIKHRPCTCTHCIGQRKLSAWFDERFNQTMQPLLTAQNALLEDDTYRWWLRLQREKKPNNLNDTIKELFRVVPGNVDPMLEKRSVGCRRCAVVGNSGNLRESSYGPEIDSHDFVLRMNKAPTAGFEADVGTKTTHHLVYPESFRELGDNVSMILVPFKTIDLEWVVSAITTGTISHTYIPVPAKIRVKQDKILIYHPAFIKYVFDNWLQGHGRYPSTGILSVIFSMHVCDEVDLYGFGADSKGNWHHYWENNPSAGAFRKTGVHDADFESNVTATLASINKIRIFKGR
Specific activity ([2]; listed as YT-5-1): 10.7 pU/AU
Specific activity ([2]; listed as YT-5-2): 15.8 pU/AU
Specific activity ([2]; listed as YT-5-3): 12.3 pU/AU
Specific activity ([2]; listed as YT-5-4): 14.9 pU/AU
Activity ([1]; listed as YT-5-1): 1.29 mU/ml
Activity ([1]; listed as YT-5-2): 2.07 mU/ml
Activity ([1]; listed as YT-5-3): 1.86 mU/ml
Activity ([1]; listed as YT-5-4): 2.29 mU/ml

B4: YT-2: ST3GalI crude enzyme solution from O. minuta strain with control plasmid pOMexGP1U, no OmPDI1 (protein, UniProt Q11201 1-340, looked up)
CMP-N-acetylneuraminate-beta-g …: MVTLRKRTLKVLTFLVLFIFLTSFFLNYSHTMVATTWFPKQMVLELSENLKRLIKHRPCTCTHCIGQRKLSAWFDERFNQTMQPLLTAQNALLEDDTYRWWLRLQREKKPNNLNDTIKELFRVVPGNVDPMLEKRSVGCRRCAVVGNSGNLRESSYGPEIDSHDFVLRMNKAPTAGFEADVGTKTTHHLVYPESFRELGDNVSMILVPFKTIDLEWVVSAITTGTISHTYIPVPAKIRVKQDKILIYHPAFIKYVFDNWLQGHGRYPSTGILSVIFSMHVCDEVDLYGFGADSKGNWHHYWENNPSAGAFRKTGVHDADFESNVTATLASINKIRIFKGR
Specific activity [1]: 2.13 pU/AU
